The nanobody polyreactivity screen of Harvey et al. (2022)

experiment: yeast display, Sf9 membrane polyspecificity reagent, FACS + sequencing; frameworks hold sequencing errors
Summary of the method: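 Polyreactivity labels are assigned by the sorting gate from which each nanobody was recovered. The gates were low and high (top ~1%), set on anti-HA fluorescence for expression and streptavidin fluorescence for reagent binding. Before sorting, galactose-induced (36–48 hours) yeast display cells were stained for 1 hour at 4 °C with 10% biotinylated, detergent-solubilized Sf9 membrane reagent.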

**Q.** Which “polyreactivity (PSR sort gate)” value does the source give for “QVQLVESGVGFVQAGGSLRLSCAASGSTFGYYDMGWYRQAPGKERELVASIRSSGSTYYADSVKGRFTISRDNPKHTVYFQMNSLKPEDTAVYYCNTASLYHRWQGSWPKYDYWGQGTQVTVSS” here?
**A.** high polyreactivity

**Q.** For “QVQLVESGVGIVQAGGSLRLSCAASGRIFDLYAMVWYRQAPGKEREFVAAISLSGGSTYYADSVKGRFTISRDNAKNTVYLQMNSLKPEDTAVYYCAADHTGKTYDYNYWGQGTQVTVSS”, which “polyreactivity (PSR sort gate)” value is on record?
**A.** low polyreactivity

**Q.** For “QVQLVESGVGIVQAGGSLRLSCAASGSTFVSNAMGWYIPAPGKERELVAAISWTGGSTYYADSVKGRFTISRDNAKTTVYLQMNSLKPEDTAVYYCAAQLTDTYYQYDYWGQVTQVTVSS”, which “polyreactivity (PSR sort gate)” value is on record?
**A.** low polyreactivity

**Q.** With “QVQLVESGVGIVQAGGSLRVSCAASGFTFYSYAKGWYRQAPGKERELVAAISYTGGSTYYADSVKGRFTISRDNAKNTVSLQMNSQKPEDSAVYYCAAKLWTRVTRMRRWVDYWGQGTQVSVSS” as the sequence, how does the “polyreactivity (PSR sort gate)” value read?
**A.** high polyreactivity

**Q.** Which “polyreactivity (PSR sort gate)” value does the source give for “QVQLVESGVGLDQAGGSLRLSCAASGSTFWWNNMVCYRQAPGKERELVAAITTGGGTYYADSVKGRFTISRDNAKNSVYLQMNSLKPEDTAVYYCAATVRSYGWYAYHYSTYGYWGKGTQVTVSS” here?
**A.** low polyreactivity

**Q.** For “QVQLVESGVGLLQAGGSLRLSCAASGFIIVPYAMGWYIQAPGKERELVATITWRGDSTYYADSVKGRFTISRDNAKNTVYLQMNSLKPEDTAVYYCAKRVVRGKVDYWGQGTQVTVSS”, which “polyreactivity (PSR sort gate)” value is on record?
**A.** low polyreactivity

**Q.** Which “polyreactivity (PSR sort gate)” value does the source give for “QVQLVESGVGLVHAGGSLRLSCAASGFIFVRYSIGWYRQAPGKEREFVASISWSGGSTYYADSVKGRFTISRDNAKNTVYLQMNSLKPEDTAVYYCAAYVRKDRSRGLYGYWGQGTQVTVSS” here?
**A.** high polyreactivity

**Q.** Which “polyreactivity (PSR sort gate)” value does the source give for “QVQLVESGVGLVKAGGILRLSCAASGSIFLRYAMGWYRQAPGKERELVATISKSGGSTYYADSVKGRFTISRDNAKNTVYLQMNSLNPEDTAVYYCAAGYVYFQTYYYWGQGTQVTVSS” here?
**A.** high polyreactivity

**Q.** Which “polyreactivity (PSR sort gate)” value does the source give for “QVQLVESGVGLVQAAGSLRLSCAASGSIFPDNAMGWSRQAPGKERELVAAIDKGTGSTNYADSVKGRFTISRDNAKNTVYLQMNSLKPEDTAVYYCATYVVTLYWWYTYDYWGQGTQVTVSS” here?
**A.** low polyreactivity

**Q.** With “QVQLVESGVGLVQAGASLRLSCAASGFIFRKNAMGWYRQAPGKERELVAAISGSGGRTYYADSVKGRFTISRDNAKNTVYLQMNSVKPEDNAVYYCNADYLSRRYSFDYWGQGTQVTVSS” as the sequence, how does the “polyreactivity (PSR sort gate)” value read?
**A.** high polyreactivity

**Q.** Which “polyreactivity (PSR sort gate)” value does the source give for “QVQLVESGVGLVQAGGRLRLSCAASGSIFPTNAMGWYRQAPGKERELVAAISGSGGSTYYADSVKGRFTISRDNAKNTVYLQMNSLKPEDTAVYYCAVKPAPTRTTKRLVYGYNYWGQGTQVTVSS” here?
**A.** high polyreactivity

**Q.** Which “polyreactivity (PSR sort gate)” value does the source give for “QVQLVESGVGLVQAGGRLRLSCASSAIIFKIYAMGWYRQAPGKERELVADITSVGSTKYADSVKGRFTISRDNAKNTVYLQMNSLKPEDTAVYYCATDWVTSHDDDYWGQGTQVTVSS” here?
**A.** low polyreactivity

**Q.** For “QVQLVESGVGLVQAGGSLRISCAASGGTFLWYAMGRYRQAPGKERELVADITYSGGSTYYADSVKGRFTISRDNAKNTVYLQMNSLKPEDTAVYYCATRGVSPSRPGYYWGQGTQVTVSS”, which “polyreactivity (PSR sort gate)” value is on record?
**A.** high polyreactivity

**Q.** Which “polyreactivity (PSR sort gate)” value does the source give for “QVQLVESGVGLVQAGGSLRLICAASGGTFEFYTMGRYRQAPGKERELVAVINASGDSTYYADSVKGRFTISRDNAKNTVYLQMNSLKPEDTAVYYCAADHRGEYDYWGQGTQVTGSS” here?
**A.** low polyreactivity

**Q.** Which “polyreactivity (PSR sort gate)” value does the source give for “QVQLVESGVGLVQAGGSLRLICAASGITFSGYDMVWYRQAPWKERELVAAISGSGTSTYYADSEKGRFTISRDKAKNTVYLQMNSLKPEDTAVYYCAARDAIFGSDYWGQGTQVTVSS” here?
**A.** high polyreactivity

**Q.** Which “polyreactivity (PSR sort gate)” value does the source give for “QVQLVESGVGLVQAGGSLRLICAASGMTFDNYAMGWYRQAPGKERELVAAITSGDGTYYADSVKGRFTISRDNAKNTVYLQMNSLKPEDTAVFYCAVQGSRTENYDWYYYWGQGTQVTVSS” here?
**A.** low polyreactivity

**Q.** With “QVQLVESGVGLVQAGGSLRLICAASGSTFYYYAMGWYRQAPGKEREFVAAISSSTGSTYYADSVKGRFTISRDNAKNTVYLQLNSLKPEDTAVYYCNALTWYTSQDYDYWGQGTQVTVSS” as the sequence, how does the “polyreactivity (PSR sort gate)” value read?
**A.** high polyreactivity

**Q.** Which “polyreactivity (PSR sort gate)” value does the source give for “QVQLVESGVGLVQAGGSLRLSCAASGFIIYGYVMGWYRQAPGKERELVAAINSSSGRTYYADSVKGRFTISRDNAKNTVYLQMNSLKPEDTAVYYCAAYYYGSYDGTPYDYWGQGTQVTVSS” here?
**A.** low polyreactivity

**Q.** For “QVQLVESGVGLVQAGGSLRLSCAASGFMFGGSAMGWKRQAPGKERELVAAITRSGGSTYYADSVKGRFTISRDNAKNTVYLQMNSLKPEDTAVYYCAAERQPYRTSSYNYWGQGTQVTVSS”, which “polyreactivity (PSR sort gate)” value is on record?
**A.** high polyreactivity

**Q.** With “QVQLVESGVGLVQAGGSLRLSCAASGFTFQQYAMAWYRQAPGKERELVASISSSGGSTYYADSVKGRFTISRDNAKNTVYLQMNSLKPEDTAVYYCNARSWVRRYIYYYWGQGTQVTVSS” as the sequence, how does the “polyreactivity (PSR sort gate)” value read?
**A.** high polyreactivity

**Q.** For “QVQLVESGVGLVQAGGSLRLSCAASGFTIYRYAMGWYRQAPGKERELVAAISRGVNTNYADSVKGRFTISRDNAKNTVYLQMNSLKPEETAVYDCAARYDNPSYRTTYGFWGQGTQVTLSS”, which “polyreactivity (PSR sort gate)” value is on record?
**A.** high polyreactivity

**Q.** With “QVQLVESGVGLVQAGGSLRLSCAASGGIFSTYTMGWYIQAPGKERELVAAITTGNSTYYADSVKGRFTISRDNAKNTVYLQMNSLKPEDTAVYYCAAFAASRDYYRRLIHDGYDYWGQGTQVTVSS” as the sequence, how does the “polyreactivity (PSR sort gate)” value read?
**A.** low polyreactivity

**Q.** For “QVQLVESGVGLVQAGGSLRLSCAASGITFYGYTMGWYRQAPGKEMELVASIRWRGGNTYYADSVKGRFTISRDNAKITVYLQMNSLKPEDTAVYYCNARARVYYYKEIVAYDYWGQGTQVTVSS”, which “polyreactivity (PSR sort gate)” value is on record?
**A.** high polyreactivity

**Q.** For “QVQLVESGVGLVQAGGSLRLSCAASGLIFQGYAMGWYTQAPGKERELVAAITLSGGSTYYADSVKGRFTISRDNAKITDYLLMNSLKPEDTAVYYCNAYYPDEPSLYDYWGQGTQVTVSS”, which “polyreactivity (PSR sort gate)” value is on record?
**A.** low polyreactivity

**Q.** For “QVQLVESGVGLVQAGGSLRLSCAASGLTFYLYSMGWYRQAPGKERELVAAINSRGGNTYYADSVKGRFTISRDKAKNTVDLQMNSLKPEDTAVYYCAADWGPWYYYWGQGTQVTVSS”, which “polyreactivity (PSR sort gate)” value is on record?
**A.** high polyreactivity

**Q.** With “QVQLVESGVGLVQAGGSLRLSCAASGRICVKYAMGWYRQAPGKERELVAAISASGGGTYYADSVKGRFTISRDNAKNTVYLQMNSLKPEDTAVYYCNADFRYPGQVPSYVTYDYWGQGTQVTVSS” as the sequence, how does the “polyreactivity (PSR sort gate)” value read?
**A.** low polyreactivity

**Q.** For “QVQLVESGVGLVQAGGSLRLSCAASGRIFDGYDMGWYRQAPGKERELVAAITSVGSTNYADSVKGRFTISRDNAKNTVYLQMNSLKPEDTAVYYCAAVLYVFYDEYGYWEYFSQYDYWGQGTQVTVSS”, which “polyreactivity (PSR sort gate)” value is on record?
**A.** low polyreactivity

**Q.** Which “polyreactivity (PSR sort gate)” value does the source give for “QVQLVESGVGLVQAGGSLRLSCAASGRIFPTYAMGWYRQAPGQERELVAGITSGGRTNYADSVKGRFTISRDNAKNTVYLQMNSLKPEDTAVYYCAKRVWPRDQYGKRNPRMDYWGQGTQVTVSS” here?
**A.** high polyreactivity

**Q.** With “QVQLVESGVGLVQAGGSLRLSCAASGRIFWDYGMGWYRQAPGKERELVAVITWGGGSTYYADSVKGRFTISRDNAKNTVYLQMNSLKPEDTAVYYCAKEYHYYYWGQGTEVTVSS” as the sequence, how does the “polyreactivity (PSR sort gate)” value read?
**A.** low polyreactivity

**Q.** With “QVQLVESGVGLVQAGGSLRLSCAASGRIFYLYAMGWYRQAPGKDSELVAAITWSGGSTTYADSVKVRFTISRDNAKNSVYLQMNSLKPEETAVYYCNADGWIFPSVSPMDYWGQGTQVTVSS” as the sequence, how does the “polyreactivity (PSR sort gate)” value read?
**A.** low polyreactivity

**Q.** For “QVQLVESGVGLVQAGGSLRLSCAASGRTFPYNAMGWYRQAPGKERELVAVISSSGGSTYYADSVKGRFTISRDNAKNTVYLQMNSLKPEDTAVYYCNTRPYFYRRPGYRYSGYDYWGLGTQVTVSS”, which “polyreactivity (PSR sort gate)” value is on record?
**A.** high polyreactivity

**Q.** With “QVQLVESGVGLVQAGGSLRLSCAASGRTFYKNAMGWSRQSPGKERELVAAISRRGGTTYYADSVKGRFTISRDNAKNTVYLQLNSPKPEDTAVYYCAVTRLGPTIGFYYWGQGTQVTVSS” as the sequence, how does the “polyreactivity (PSR sort gate)” value read?
**A.** high polyreactivity

**Q.** For “QVQLVESGVGLVQAGGSLRLSCAASGRTFYVYAMGWNIQAPGKERELVAAISWGRGSTYYADSVKGRFTNSRDYAKNTVYLQMNSLQPEDTAVYYCADDKTRYRLGRDYWGQGTQVTVSS”, which “polyreactivity (PSR sort gate)” value is on record?
**A.** low polyreactivity

**Q.** With “QVQLVESGVGLVQAGGSLRLSCAASGSIFATNDMGWYRQAPGKERELVASISSGGGSTYYADSVKGRFTISRDNAKNTVYFQMNSLKPEDTAVYYCAADRGDTYTTDYDYWGQGTQVTLSS” as the sequence, how does the “polyreactivity (PSR sort gate)” value read?
**A.** low polyreactivity

**Q.** With “QVQLVESGVGLVQAGGSLRLSCAASGSIFHINAMGWSRQAPGKERELEADISQRGGSTYYADSVKGRFTISRDNAKNTVYLQMNSLKPEDTAVYFCAVVHVFYAVSYFSFYTYDYWGQGTQVTLSS” as the sequence, how does the “polyreactivity (PSR sort gate)” value read?
**A.** low polyreactivity

**Q.** With “QVQLVESGVGLVQAGGSLRLSCAASGSIFQDNAMGWYRQAPGKERELVAAISSGDSTYYADSVKGRFTISRDNAKNTVYLQMNSLKPEDTAVYYCAKVPSRWSRQDKAQFDYWGQGTQVTVSS” as the sequence, how does the “polyreactivity (PSR sort gate)” value read?
**A.** low polyreactivity

**Q.** With “QVQLVESGVGLVQAGGSLRLSCAASGSIFYDNAMGWYRQAPGKERELVAVITVSGDSTYYADSVKGRFTISRDNAKNTVYLQMNSLKPEDTAVYYCNTDAISGSHFWRYITFGYLDDYWGQGTQVTVSS” as the sequence, how does the “polyreactivity (PSR sort gate)” value read?
**A.** low polyreactivity

**Q.** With “QVQLVESGVGLVQAGGSLRLSCAASGSIFYSNAMGRYRQAPGKERELVASIRGSGVSTYYADSVKGRFTISRDNAKNTVYLQMNRLKPEDTAVYYCAARYGRSYFGYYYWGQGTQVTVSS” as the sequence, how does the “polyreactivity (PSR sort gate)” value read?
**A.** high polyreactivity

**Q.** Which “polyreactivity (PSR sort gate)” value does the source give for “QVQLVESGVGLVQAGGSLRLSCAASGSIFYVYAMGWYRQAPGKERELVAAITNYADSVKGRFTISRDNAKNTVYLQMNSLKPEDTAVYYCAADWWRVEMDYWGQGTQVTVSS” here?
**A.** low polyreactivity

**Q.** For “QVQLVESGVGLVQAGGSLRLSCAASGSTFGTYDMGWFRQAPGKERELVAAITWIGDTTYYADSVKGRFTISRDNAKNTVYLQMNSLIPEDTAVYYCAAEPNYQYYGPLGYDYWGQGTQVTVSS”, which “polyreactivity (PSR sort gate)” value is on record?
**A.** low polyreactivity
